Blank lines part the entries; values can stand above or below the molecule they belong to.
Assays:
Type in all cases: biochemical
[1] = ω-transaminase activity assay, reverse direction (7-aminoheptanoate to pimelate semialdehyde), L-alanine formation by RP-HPLC; details: cell free extract, 10 mM 7-aminoheptanoate, 10 mM pyruvate, pH=7.5, 25° C., 4 h; against the empty vector control; FIG. 15
Protocol: (§1) A sequence encoding an N-terminal His-tag was added to the genes from Chromobacterium violaceum, Pseudomonas syringae, Rhodobacter sphaeroides, and Vibrio Fluvialis encoding the ω-transaminases of SEQ ID NOs: 8, 10, 11 and 13, respectively (see FIGS. 7F and 7G) such that N-terminal HIS tagged ω-transaminases could be produced. Each of the resulting modified genes was cloned into a pET21a expression vector under control of the T7 promoter and each expression vector was transformed into a BL21[DE3] E. coli host. The resulting recombinant E. coli strains were cultivated at 37° C. in a 250 mL shake flask culture containing 50 mL LB media and antibiotic selection pressure, with shaking at 230 rpm. Each culture was induced overnight at 16° C. using 1 mM IPTG.
(§2) The pellet from each induced shake flask culture was harvested via centrifugation. Each pellet was resuspended and lysed via sonication. The cell debris was separated from the supernatant via centrifugation and the cell free extract was used immediately in enzyme activity assays.
Enzyme activity assays in the reverse direction (i.e., 7-aminoheptanoate to pimelate semialdehyde) were performed in a buffer composed of a final concentration of 50 mM HEPES buffer (pH=7.5), 10 mM 7-aminoheptanoate, 10 mM pyruvate and 100 μM pyridoxyl 5′ phosphate. Each enzyme activity assay reaction was initiated by adding cell free extract of the ω-transaminase gene product or the empty vector control to the assay buffer containing the 7-aminoheptanoate and incubated at 25° C. for 4 h, with shaking at 250 rpm. The formation of L-alanine from pyruvate was quantified via RP-HPLC.

[2] = ω-transaminase activity assay, 7-aminoheptanol to 7-oxoheptanol, L-alanine formation by RP-HPLC; details: for ω-transaminase activity for converting 7-aminoheptanol to 7-oxoheptanol: cell free extract, 10 mM 7-aminoheptanol, 10 mM pyruvate, pH=7.5, 25° C., 4 h, against the empty vector control, FIG. 19; for ω-transaminase accepts 7-oxoheptanol and forms 7-aminoheptanol, concluded from reversibility: conclusion given the reversibility of the ω-transaminase activity (Example 2)
Protocol: A nucleotide sequence encoding an N-terminal His-tag was added to the Chromobacterium violaceum, Pseudomonas syringae and Rhodobacter sphaeroides genes encoding the ω-transaminases of SEQ ID NOs: 8, 10 and 11, respectively (see FIGS. 7F and 7G) such that N-terminal HIS tagged ω-transaminases could be produced. The modified genes were cloned into a pET21a expression vector under the T7 promoter. Each expression vector was transformed into a BL21[DE3] E. coli host. Each resulting recombinant E. coli strain were cultivated at 37° C. in a 250 mL shake flask culture containing 50 mL LB media and antibiotic selection pressure, with shaking at 230 rpm. Each culture was induced overnight at 16° C. using 1 mM IPTG.
as §2
Enzyme activity assays in the reverse direction (i.e., 7-aminoheptanol to 7-oxoheptanol) were performed in a buffer composed of a final concentration of 50 mM HEPES buffer (pH=7.5), 10 mM 7-aminoheptanol, 10 mM pyruvate, and 100 μM pyridoxyl 5′ phosphate. Each enzyme activity assay reaction was initiated by adding cell free extract of the ω-transaminase gene product or the empty vector control to the assay buffer containing the 7-aminoheptanol and then incubated at 25° C. for 4 h, with shaking at 250 rpm. The formation of L-alanine was quantified via RP-HPLC.

[3] = ω-transaminase activity assay, forward direction (pimelate semialdehyde to 7-aminoheptanoate), pyruvate formation by RP-HPLC; details: for ω-transaminase activity for converting pimelate semialdehyde to 7-aminoheptanoate: cell free extract, 10 mM pimelate semialdehyde, 10 mM L-alanine, pH=7.5, 25° C., 4 h, against the empty vector control, FIG. 16; for ω-transaminase accepts pimelate semialdehyde and synthesizes 7-aminoheptanoate, concluded from the reversibility of the activity: conclusion from confirmed reversibility
Protocol: as §1, §2
Enzyme activity in the forward direction (i.e., pimelate semialdehyde to 7-aminoheptanoate) was confirmed for the transaminases of SEQ ID NO 10, SEQ ID NO 11 and SEQ ID NO 13. Enzyme activity assays were performed in a buffer composed of a final concentration of 50 mM HEPES buffer (pH=7.5), 10 mM pimelate semialdehyde, 10 mM L-alanine and 100 μM pyridoxyl 5′ phosphate. Each enzyme activity assay reaction was initiated by adding a cell free extract of the ω-transaminase gene product or the empty vector control to the assay buffer containing the pimelate semialdehyde and incubated at 25° C. for 4 h, with shaking at 250 rpm. The formation of pyruvate was quantified via RP-HPLC.

[4] = Carboxylate reductase activity assay, N7-acetyl-7-aminoheptanoate to N7-acetyl-7-aminoheptanal (NADPH consumption, absorbance at 340 nm); details: purified enzyme enhanced by the gene product of sfp, 2 mM N7-acetyl-7-aminoheptanoate, 1 mM ATP, 1 mM NADPH, pH=7.5, room temperature, 20 min; against the empty vector control; FIG. 12
Protocol: The activity of each of the N-terminal His-tagged carboxylate reductases of SEQ ID NOs: 3, 6, and 7 (see Examples 4, and FIGS. 7B, 7E, and 7F) for converting N7-acetyl-7-aminoheptanoate to N7-acetyl-7-aminoheptanal was assayed in triplicate in a buffer composed of a final concentration of 50 mM HEPES buffer (pH=7.5), 2 mM N7-acetyl-7-aminoheptanoate, 10 mM MgCl2, 1 mM ATP, and 1 mM NADPH. The assays were initiated by adding purified carboxylate reductase and phosphopantetheine transferase or the empty vector control to the assay buffer containing the N7-acetyl-7-aminoheptanoate then incubated at room temperature for 20 min. The consumption of NADPH was monitored by absorbance at 340 nm.

Molecule: SEQ ID NO 11: Rhodobacter sphaeroides ω-transaminase, Genbank Accession No. ABA81135.1
- ω-transaminase activity for converting 7-aminoheptanoate to pimelate semialdehyde [1]: accepted 7-aminoheptanote as substrate
- ω-transaminase activity for converting 7-aminoheptanol to 7-oxoheptanol [2]: accepted 7-aminoheptanol as substrate
- ω-transaminase accepts 7-oxoheptanol and forms 7-aminoheptanol, concluded from reversibility [2]: accept 7-oxoheptanol as substrate
- ω-transaminase activity for converting pimelate semialdehyde to 7-aminoheptanoate [3]: accepted pimelate semialdehyde as substrate
- ω-transaminase accepts pimelate semialdehyde and synthesizes 7-aminoheptanoate, concluded from the reversibility of the activity [3]: accepted pimelate semialdehyde as substrate and synthesized 7-aminoheptanoate

B2: SEQ ID NO 8: Chromobacterium violaceum ω-transaminase, Genbank Accession No. AAQ59697.1 (protein, listed as Chromobacterium violaceum)
chain: MQKQRTTSQWRELDAAHHLHPFTDTASLNQAGARVMTRGEGVYLWDSEGNKIIDGMAGLWCVNVGYGRKDFAEAARRQMEELPFYNTFFKTTHPAVVELSSLLAEVTPAGFDRVFYTNSGSESVDTMIRMVRRYWDVQGKPEKKTLIGRWNGYHGSTIGGASLGGMKYMHEQGDLPIPGMAHIEQPWWYKHGKDMTPDEFGVVAARWLEEKILEIGADKVAAFVGEPIQGAGGVIVPPATYWPEIERICRKYDVLLVADEVICGFGRTGEWFGHQHFGFQPDLFTAAKGLSSGYLPIGAVFVGKRVAEGLIAGGDFNHGFTYSGHPVCAAVAHANVAALRDEGIVQRVKDDIGPYMQKRWRETFSRFEHVDDVRGVGMVQAFTLVKNKAKRELFPDFGEIGTLCRDIFFRNNLIMRACGDHIVSAPPLVMTRAEVDEMLAVAERCLEEFEQTLKARGLA
- ω-transaminase activity for converting 7-aminoheptanoate to pimelate semialdehyde [1]: accepted 7-aminoheptanote as substrate
- ω-transaminase activity for converting 7-aminoheptanol to 7-oxoheptanol [2]: accepted 7-aminoheptanol as substrate
- ω-transaminase accepts 7-oxoheptanol and forms 7-aminoheptanol, concluded from reversibility [2]: accept 7-oxoheptanol as substrate
- ω-transaminase accepts pimelate semialdehyde and synthesizes 7-aminoheptanoate, concluded from the reversibility of the activity [3]: accepted pimelate semialdehyde as substrate and synthesized 7-aminoheptanoate

B3: SEQ ID NO 3: Mycobacterium smegmatis carboxylate reductase, Genbank Accession No. ABK71854.1 (protein, listed as Mycobacterium smegmatis)
chain: MTSDVHDATDGVTETALDDEQSTRRIAELYATDPEFAAAAPLPAVVDAAHKPGLRLAEILQTLFTGYGDRPALGYRARELATDEGGRTVTRLLPRFDTLTYAQVWSRVQAVAAALRHNFAQPIYPGDAVATIGFASPDYLTLDLVCAYLGLVSVPLQHNAPVSRLAPILAEVEPRILTVSAEYLDLAVESVRDVNSVSQLVVFDHHPEVDDHRDALARAREQLAGKGIAVTTLDAIADEGAGLPAEPIYTADHDQRLAMILYTSGSTGAPKGAMYTEAMVARLWTMSFITGDPTPVINVNFMPLNHLGGRIPISTAVQNGGTSYFVPESDMSTLFEDLALVRPTELGLVPRVADMLYQHHLATVDRLVTQGADELTAEKQAGAELREQVLGGRVITGFVSTAPLAAEMRAFLDITLGAHIVDGYGLTETGAVTRDGVIVRPPVIDYKLIDVPELGYFSTDKPYPRGELLVRSQTLTPGYYKRPEVTASVFDRDGYYHTGDVMAETAPDHLVYVDRRNNVLKLAQGEFVAVANLEAVFSGAALVRQIFVYGNSERSFLLAVVVPTPEALEQYDPAALKAALADSLQRTARDAELQSYEVPADFIVETEPFSAANGLLSGVGKLLRPNLKDRYGQRLEQMYADIAATQANQLRELRRAAATQPVIDTLTQAAATILGTGSEVASDAHFTDLGGDSLSALTLSNLLSDFFGFEVPVGTIVNPATNLAQLAQHIEAQRTAGDRRPSFTTVHGADATEIRASELTLDKFIDAETLRAAPGLPKVTTEPRTVLLSGANGWLGRFLTLQWLERLAPVGGTLITIVRGRDDAAARARLTQAYDTDPELSRRFAELADRHLRVVAGDIGDPNLGLTPEIWHRLAAEVDLVVHPAALVNHVLPYRQLFGPNVVGTAEVIKLALTERIKPVTYLSTVSVAMGIPDFEEDGDIRTVSPVRPLDGGYANGYGNSKWAGEVLLREAHDLCGLPVATFRSDMILAHPRYRGQVNVPDMFTRLLLSLLITGVAPRSFYIGDGERPRAHYPGLTVDFVAEAVTTLGAQQREGYVSYDVMNPHDDGISLDVFVDWLIRAGHPIDRVDDYDDWVRRFETALTALPEKRRAQTVLPLLHAFRAPQAPLRGAPEPTEVFHAAVRTAKVGPGDIPHLDEALIDKYIRDLREFGLI
- carboxylate reductase activity for converting N7-acetyl-7-aminoheptanoate to N7-acetyl-7-aminoheptanal [4]: accepted N7-acetyl-7-aminoheptanoate as substrate

Second part, led by results:

- ω-transaminase activity for converting 7-aminoheptanoate to pimelate semialdehyde [1]: accepted 7-aminoheptanote as substrate
- ω-transaminase activity for converting 7-aminoheptanol to 7-oxoheptanol [2]: accepted 7-aminoheptanol as substrate
- ω-transaminase accepts 7-oxoheptanol and forms 7-aminoheptanol, concluded from reversibility [2]: accept 7-oxoheptanol as substrate
B1: SEQ ID NO 10: Pseudomonas syringae ω-transaminase, Genbank Accession No. AAY39893.1 (protein, listed as Pseudomonas syringae)
chain: MSANNPQTLEWQALSSEHHLAPFSDYKQLKEKGPRIITRAEGVYLWDSEGNKILDGMSGLWCVAIGYGREELADAASKQMRELPYYNLFFQTAHPPVLELAKAISDIAPEGMNHVFFTGSGSEGNDTMLRMVRHYWALKGQPNKKTIISRVNGYHGSTVAGASLGGMTYMHEQGDLPIPGVVHIPQPYWFGEGGDMTPDEFGIWAAEQLEKKILELGVENVGAFIAEPIQGAGGVIVPPDSYWPKIKEILSRYDILFAADEVICGFGRTSEWFGSDFYGLRPDMMTIAKGLTSGYVPMGGLIVRDEIVAVLNEGGDFNHGFTYSGHPVAAAVALENIRILREEKIVERVRSETAPYLQKRLRELSDHPLVGEVRGVGLLGAIELVKDKTTRERYTDKGAGMICRTFCFDNGLIMRAVGDTMIIAPPLVISFAQIDELVEKARTCLDLTLAVLQG
- ω-transaminase activity for converting pimelate semialdehyde to 7-aminoheptanoate [3]: accepted pimelate semialdehyde as substrate
- ω-transaminase accepts pimelate semialdehyde and synthesizes 7-aminoheptanoate, concluded from the reversibility of the activity [3]: accepted pimelate semialdehyde as substrate and synthesized 7-aminoheptanoate

- ω-transaminase activity for converting 7-aminoheptanoate to pimelate semialdehyde [1]: accepted 7-aminoheptanote as substrate
B4: SEQ ID NO 13: Vibrio fluvialis ω-transaminase, Genbank Accession No. AEA39183.1 (protein, listed as Vibrio fluvialis)
chain: MNKPQSWEARAETYSLYGFTDMPSLHQRGTVVVTHGEGPYIVDVNGRRYLDANSGLWNMVAGFDHKGLIDAAKAQYERFPGYHAFFGRMSDQTVMLSEKLVEVSPFDSGRVFYTNSGSEANDTMVKMLWFLHAAEGKPQKRKILTRWNAYHGVTAVSASMTGKPYNSVFGLPLPGFVHLTCPHYWRYGEEGETEEQFVARLARELEETIQREGADTIAGFFAEPVMGAGGVIPPAKGYFQAILPILRKYDIPVISDEVICGFGRTGNTWGCVTYDFTPDAIISSKNLTAGFFPMGAVILGPELSKRLETAIEAIEEFPHGFTASGHPVGCAIALKAIDVVMNEGLAENVRRLAPRFEERLKHIAERPNIGEYRGIGFMWALEAVKDKASKTPFDGNLSVSERIANTCTDLGLICRPLGQSVVLCPPFILTEAQMDEMFDKLEKALDKVFAEVA
- ω-transaminase activity for converting pimelate semialdehyde to 7-aminoheptanoate [3]: accepted pimelate semialdehyde as substrate
- ω-transaminase accepts pimelate semialdehyde and synthesizes 7-aminoheptanoate, concluded from the reversibility of the activity [3]: accepted pimelate semialdehyde as substrate and synthesized 7-aminoheptanoate

From patent US9637764B2, “Methods of producing 7-carbon chemicals via carbon chain elongation associated with cyclohexane carboxylate synthesis” (INVISTA North America S.á r.l., priority 2012, dated 2017)
